{
  "source": "patent US11466067B2",
  "about": "(priority 2019, dated 2022)",
  "molecules": {"B1": {"name": "IL-10 delivery construct: recombinant homodimeric fusion protein: N-terminal methionine, cholix386 domain, polyGlySer spacer, recombinant human IL-10 (protein)", "chain": "MVEEALNIFDECRSPCSLTPEPGKPIQSKLSIPSDVVLDEGVLYYSMTINDEQNDIKDEDKGESIITIGEFATVRATRHYVNQDAPFGVIHLDITTENGTKTYSYNRKEGEFAINWLVPIGEDSPASIKISVDELDQQRNIIEVPKLYSIDLDNQTLEQWKTQGNVSFSVTRPEHNIAISWPSVSYKAAQKEGSRHKRWAHWHTGLALCWLVPMDAIYNYITQQNCTLGDNWFGGSYETVAGTPKVITVKQGIEQKPVEQRIHFSKGNAMSALAAHRVCGVPLETLARSRKPRDLTDDLSCAYQAQNIVSLFVATRILFSHLDSVFTLNLDEQEPEVAERLSDLRRINENNPGMVTQVLTVARQIYNDYVTHHPGLTPEQTSAGAQAGGGGSGGGGSGGGGSPGQGTQSENSCTHFPGNLPNMLRDLRDAFSRVKTFFQMKDQLDNLLLKESLLEDFKGYLGCQALSEMIQFYLEEVMPQAENQDPDIKAHVNSLGENLKTLRLRLRRCHRFLPCENKSKAVEQVKNAFNKLQEKGIYKAMSEFDIFINYIEAYMTMKIRN", "modifications": "homodimer"}},
  "key": {"[1]": {"test_system": "circulating cytokines", "settings": "8.45 mg/kg, Luminex"}, "[2]": {"test_system": "STAT3 phosphorylation", "experiment": "In vivo pSTAT3 induction after intraluminal injection or oral gavage", "parameters": "species or system Balb/C mice", "settings": "intraluminal injection, jejunum", "description": "In vivo studies in mice were performed where the biological activity of human IL-10 following transcytosis was assessed for its ability to stimulate the mouse IL-10 receptor and increase phosphorylation of STAT3 (pSTAT3) in cells within the Lamina propria.\nAn extensive amount of rhIL-10 (SEQ ID NO: 5) was trafficked through enterocytes. Additionally, there were a population of lymphocyte-like cells at the basolateral surface of enterocytes and within the Lamina propria that were pSTAT3 positive.\nEntire intestines of mice were isolated and processed as a “swiss role” and localization of pSTAT3 was detected by immunofluorescence confocal microscopy (FIG. 110)."}, "[3]": {"test_system": "colonic tissue", "experiment": "Pan-colonic administration in NHP: colonic tissue IL-10, IL-1Ra, pSTAT3, cytokines", "format": "in vivo, cynomolgus monkeys", "description": "(§1) IL-10 delivery construct solution (at concentrations of 0.1, 0.3 and 1.0 mg/mL for the low, mid and high-dose groups respectively) was administered via the rectal route using sigmoidoscopy and a syringe connected to a spray nozzle with a 360° spray pattern. Serial biopsy samples were collected by sigmoidoscopy (pre-dose, 0.25, 0.5, 0.75, 8 and 24-28 hours post dose). Serial plasma samples from 0 min pre-dose to between 24-28 hours post-dose were collected for analysis for the IL-10 delivery construct.\nPhosphorylation of STAT3 is an early downstream event following IL-10 receptor activation.\n(§2) Colonic biopsies at each tissue timepoint were analyzed for local concentration of IL-10 delivery construct, total IL-10, IL-1Ra, soluble cytokines, activation of STAT3 and gene expression following administration of the IL-10 delivery construct. […] In addition, STC1, MTNR1A and VNN2 encode proteins that suppress the […] signaling pathway, a pathway through which key pro-inflammatory cytokines are regulated. […] This is consistent with the ability of IL-10 to suppress these cells' activation or differentiation towards a pro-inflammatory immune phenotype."}, "[4]": {"test_system": "circulating cytokines", "experiment": "Plasma cytokines by MSD 10-plex, oxazolone dose response", "parameters": "species or system mice", "settings": "mouse, in vivo", "text": "Plasma cytokines were quantified using the V-plex Proinflammatory Panel 1 Mouse Kit. Plasma IL-1Ra was quantitated by sandwich immunoassay using an antibody pair from the Mouse IL-1Ra/IL-1F3 DuoSet ELISA (R&D Systems #DY480), Streptavidin SULFO-TAG Labeled (MSD #R32AD-1), Multi-Array 96 Plate Pack, SECTOR Plate MSD #L15XA-3 and Read Buffer T (4×) (MSD #R92TC-2). Samples were read on the QuickPlex SQ 120 plate reader (Meso Scale Discovery, Rockville, Md.)."}, "[5]": {"test_system": "colonic genes", "experiment": "Pan-colonic administration in NHP: colonic gene expression at 8 h", "format": "in vivo, cynomolgus monkeys", "description": "as §2"}, "[6]": {"test_system": "colonic markers", "experiment": "Colonic sigmoidoscopy spray in NHP: inflammatory and tissue repair markers", "format": "in vivo, Macaca fascicularis", "settings": "1, 3, 10 mg", "description": "To assess the effect of an IL-10 delivery construct on pro-inflammatory and anti-inflammatory markers the IL-10 delivery construct was delivered to male Macaca fascicularis monkeys (about 5 to about 8 kg) by colonic sigmoidoscopy with a spray nozzle. The IL-10 delivery construct was administered at doses of 1 mg, 3 mg, and 10 mg formulated in albumin."}, "[7]": {"settings": "0.3 mg/mL, 5 h"}, "[8]": {"experiment": "Pan-colonic administration via sigmoidoscopy in NHP: plasma PK/PD", "format": "in vivo, cynomolgus monkeys", "description": "as §1"}, "[9]": {"experiment": "Single oral capsule dose in NHP: plasma total IL-10", "format": "in vivo, Macaca fascicularis", "text": "IL-10 delivery constructs (SEQ ID NO: 5) and caffeine were filled by weight into size-1 Capsugel V-Cap Hydroxypropyl Methylcellulose (HPMC) capsules, for oral administration. The capsules were then successively coated in a pan spray coater with three layers of polymers. The first and third layer were thin coatings of HPMC, the first to seal the crease where the capsule shells come together, and the third to minimize sticking of the capsules to each other. The second coating layer was comprised of a 50:50 mixture of Eudragit® (Evonik Industries AG) enteric acrylic polymers FS 30 D and L 30 D-55, designed to dissolve and allow the capsule to open at pH 6.5.\nThe MSD Small Spot IL-10 plate was washed 3 times with PBST before use. Standards were prepared in Diluent 2 (MSD Cat No R51BB), and samples diluted 2-fold in Diluent 2. Standards and diluted samples were added to the assay plate and the plate incubated for 2 hours at room temperature with shaking. The plate was washed 3 times with PBST and 1×SULFO TAG anti-huIL-10. Antibody was added to the plate before incubation for 1 hour at room temperature with shaking. Following a wash step, 2×MSD Read buffer was added to the wells of the plate and the plate is read in the MSD Sector Imager 600 plate reader. The lower limit of detection of each analyte is defined as 2.5 standard deviation above background.\nPlasma samples were analyzed for Total IL-10, IL-1Ra, caffeine content and a panel of proinflammatory cytokines. Assay LLOQs were: total IL-10=0.3 pg/mL; IL-1Ra=78 pg/mL; and caffeine=[…]. Plasma concentration of IL-10 can refer to the concentration in plasma of both naturally occurring IL-10 and IL-10 appended to a carrier (for example, IL-10 in an IL-10 delivery construct described herein).\nIL-10 delivery construct dosing at multiple fixed doses in non-naïve adult male Macaca fascicularis was conducted by Valley Biosystems (West Sacramento, Calif.). […] Dosing groups are described in TABLE 45.\nAnimals were fasted until after the 3 hour blood sample collection, when food was given. For dosing, the animals were manually restrained and a bite block placed between the jaws. A pill gun containing the dosing capsule was inserted into the back of the oral cavity and the capsule released. Up to 4 capsules were administered consecutively and a small amount of water given to induce swallowing. Once the administration of the dose was confirmed, the bite block was removed and the head released.\nBlood samples were collected in K2EDTA tubes from each animal pre-dose and at 0.5, 1, 2, 3, 4, 5, 6, 7, 8, and 24 hours post-dose. Animals were returned to home cages following the 2-hour sample collection. Following physical restraint, blood samples were collected via direct venous puncture using a cephalic, femoral or saphenous vein, which were processed to plasma and stored frozen at −60° C. until shipment."}},
  "data": [
    {"molecule": "B1", "values": [
      {"measurement": "reduction of plasma IL-6 vs Vehicle", "setting": "[1]", "result": 33, "unit": "%"},
      {"measurement": "reduction of plasma IL-23 vs Vehicle", "setting": "[1]", "result": 73, "unit": "%"},
      {"measurement": "phosphorylation of STAT3 in cells within the Lamina propria", "setting": "[2]", "result": "increased phosphorylation of STAT3"},
      {"measurement": "total IL-10 in colonic tissue", "setting": "[3]; 1, 3, 10 mg", "result": "dose-dependent increase"},
      {"measurement": "colonic tissue pSTAT3/STAT3", "setting": "[3]; all doses tested", "result": "Higher ratios"},
      {"measurement": "plasma cytokines, MSD 10-plex, vs Vehicle", "setting": "[4]", "result": "no significant differences"},
      {"measurement": "MMP1, MMP3 and MMP19 expression", "setting": "[5]", "result": "upregulated"},
      {"measurement": "TIMP1 expression", "setting": "[5]", "result": "increased"},
      {"measurement": "anti-inflammatory genes (CD163, miR24-2, NOX1, STC1, MTNR1A, VNN2)", "setting": "[5]", "result": "upregulated"},
      {"measurement": "pro-inflammatory genes (MHCII, PLA2G2D, CCL20, CCL13)", "setting": "[5]", "result": "decreased"},
      {"measurement": "CYP1A1 expression", "setting": "[5]; 12-hour fast prior to treatment", "result": "downregulated"},
      {"measurement": "expression of anti-inflammatory markers", "setting": "[6]", "result": "increased expression"},
      {"measurement": "expression of pro-inflammatory markers", "setting": "[6]", "result": "decreased expression"},
      {"measurement": "expression of tissue repair and wound healing biomarkers", "setting": "[6]", "result": "increased expression"},
      {"measurement": "solution stability in PBS at 37 °C", "setting": "[7]", "result": "significant degradation"},
      {"measurement": "solution stability in PBS at RT", "setting": "[7]", "result": "stable"},
      {"measurement": "plasma construct concentration relative to total IL-10", "setting": "[8]; 3 mg and 10 mg", "result": 10, "unit": "fold lower"},
      {"measurement": "time to detection of total IL-10 in plasma", "setting": "[8]; 1, 3, 10 mg pan-colonic", "result": "≤ 15", "unit": "min"},
      {"measurement": "systemic IL-6", "setting": "[8]; 3 and 10 mg", "result": "moderately induced"},
      {"measurement": "systemic IFN-γ, IL-1β, IL-2, IL-8", "setting": "[8]; cynomolgus monkey, in vivo", "result": "did not lead to an increase"},
      {"measurement": "time of maximal plasma IL-1Ra", "setting": "[8]; cynomolgus monkey, in vivo", "result": "3 to 4", "unit": "h"},
      {"measurement": "plasma total IL-10 Tmax", "setting": "[9]; 1 mg", "result": 4, "unit": "h"},
      {"measurement": "plasma total IL-10 Tmax", "setting": "[9]; 4 mg", "result": 3, "unit": "h"},
      {"measurement": "plasma total IL-10 Tmax", "setting": "[9]; 20.5 mg", "result": 2, "unit": "hours post dose"},
      {"measurement": "plasma total IL-10 Tmax", "setting": "[9]; 82 mg", "result": 2, "unit": "hours post dose"},
      {"measurement": "plasma total IL-10 Cmax", "setting": "[9]; 82 mg (4×20.5 mg capsules), oral", "result": 1.34, "unit": "pg/mL"}
    ]}
  ]
}
